Non-standard residues stand in square brackets, D forms with d. Primed or numbered codes have the meaning given here. No end group written: not given here. Phe(4-Me) = Cc1ccc(C[C@H](N)C(=O)O)cc1; FITC′ = not defined here
What was measured:
Test in all cases: FRET or BRET; HEK293 cells transfected with Rluc-ADGRG2-ΔGPS-β WT or mutants, stimulated by increasing concentrations of FITC-conjugated VPM-p15; saturation curves fitted with GraphPad; each experiment repeated 6 times
Details in all cases: one partner purified
Rluc-ADGRG2-ΔGPS-β S760A = target: T1, Rluc-ADGRG2-ΔGPS-β S760A (mouse, UniProt Q8CJ12-3 38-995, S760A)
T1 construct: ADGRG2 (GPR64), mouse, ADGRG2-ΔGPS-β: the entire ECD removed; source: HEK293, transfected, on cells; not shown: Rluc, N-terminal, kept
T1 sequence (Q8CJ12 other isoform, or with tags, fused parts or gaps S760A | S760A | S760A S760A): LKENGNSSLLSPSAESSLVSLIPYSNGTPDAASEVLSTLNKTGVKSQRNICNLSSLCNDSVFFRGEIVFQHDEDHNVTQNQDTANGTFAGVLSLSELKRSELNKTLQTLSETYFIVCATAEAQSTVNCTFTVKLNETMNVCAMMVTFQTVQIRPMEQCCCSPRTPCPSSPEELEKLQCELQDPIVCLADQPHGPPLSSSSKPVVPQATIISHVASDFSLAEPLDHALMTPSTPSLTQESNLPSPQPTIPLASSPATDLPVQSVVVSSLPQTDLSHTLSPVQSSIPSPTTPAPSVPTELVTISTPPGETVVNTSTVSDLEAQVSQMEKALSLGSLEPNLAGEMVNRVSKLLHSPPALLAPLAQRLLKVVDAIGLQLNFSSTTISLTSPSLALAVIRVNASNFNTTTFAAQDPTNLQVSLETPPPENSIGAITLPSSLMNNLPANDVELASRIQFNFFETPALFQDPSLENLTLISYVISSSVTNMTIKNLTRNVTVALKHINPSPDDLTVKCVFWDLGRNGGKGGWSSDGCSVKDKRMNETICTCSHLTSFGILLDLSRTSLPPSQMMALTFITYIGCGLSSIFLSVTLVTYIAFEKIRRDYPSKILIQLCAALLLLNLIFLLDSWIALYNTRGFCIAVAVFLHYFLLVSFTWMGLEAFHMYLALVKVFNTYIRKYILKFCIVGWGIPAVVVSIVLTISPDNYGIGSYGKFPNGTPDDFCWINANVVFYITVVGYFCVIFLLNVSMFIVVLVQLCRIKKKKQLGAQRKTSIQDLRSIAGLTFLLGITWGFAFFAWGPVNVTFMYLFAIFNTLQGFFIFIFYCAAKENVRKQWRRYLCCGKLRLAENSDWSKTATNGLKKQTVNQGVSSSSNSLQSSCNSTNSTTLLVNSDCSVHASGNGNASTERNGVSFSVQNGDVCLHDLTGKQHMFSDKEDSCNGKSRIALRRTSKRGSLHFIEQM

Rluc-ADGRG2-ΔGPS-β F764A = target: T2, Rluc-ADGRG2-ΔGPS-β F764A (mouse, UniProt Q8CJ12-3 38-995, F764A)
T2 construct: ADGRG2 (GPR64), mouse, ADGRG2-ΔGPS-β: the entire ECD removed; source: HEK293, transfected, on cells; not shown: Rluc, N-terminal, kept
T2 sequence (Q8CJ12 other isoform, or with tags, fused parts or gaps F764A | F764A | F764A F764A): as the sequence (Q8CJ12 other isoform, or with tags, fused parts or gaps S760A | S760A | S760A S760A) above, with A723S, F727A counted along it

Rluc-ADGRG2-ΔGPS-β F772A = target: T3, Rluc-ADGRG2-ΔGPS-β F772A (mouse, UniProt Q8CJ12-3 38-995, F772A)
T3 construct: ADGRG2 (GPR64), mouse, ADGRG2-ΔGPS-β: the entire ECD removed; source: HEK293, transfected, on cells; not shown: Rluc, N-terminal, kept
T3 sequence (Q8CJ12 other isoform, or with tags, fused parts or gaps F772A | F772A | F772A F772A): as the sequence (Q8CJ12 other isoform, or with tags, fused parts or gaps S760A | S760A | S760A S760A) above, with A723S, F735A counted along it

Rluc-ADGRG2-ΔGPS-β Y611A = target: T4, Rluc-ADGRG2-ΔGPS-β Y611A (mouse, UniProt Q8CJ12-3 38-995, Y611A)
T4 construct: ADGRG2 (GPR64), mouse, ADGRG2-ΔGPS-β: the entire ECD removed; source: HEK293, transfected, on cells; not shown: Rluc, N-terminal, kept
T4 sequence (Q8CJ12 other isoform, or with tags, fused parts or gaps Y611A | Y611A | Y611A Y611A): as the sequence (Q8CJ12 other isoform, or with tags, fused parts or gaps S760A | S760A | S760A S760A) above, with Y574A, A723S counted along it

Rluc-ADGRG2-ΔGPS-β F845A = target: T5, Rluc-ADGRG2-ΔGPS-β F845A (mouse, UniProt Q8CJ12-3 38-995, F845A)
T5 construct: ADGRG2 (GPR64), mouse, ADGRG2-ΔGPS-β: the entire ECD removed; source: HEK293, transfected, on cells; not shown: Rluc, N-terminal, kept
T5 sequence (Q8CJ12 other isoform, or with tags, fused parts or gaps F845A | F845A | F845A F845A): as the sequence (Q8CJ12 other isoform, or with tags, fused parts or gaps S760A | S760A | S760A S760A) above, with A723S, F808A counted along it

Rluc-ADGRG2-ΔGPS-β F747A = target: T6, Rluc-ADGRG2-ΔGPS-β F747A (mouse, UniProt Q8CJ12-3 38-995, F747A)
T6 construct: ADGRG2 (GPR64), mouse, ADGRG2-ΔGPS-β: the entire ECD removed; source: HEK293, transfected, on cells; not shown: Rluc, N-terminal, kept
T6 sequence (Q8CJ12 other isoform, or with tags, fused parts or gaps F747A | F747A | F747A F747A): as the sequence (Q8CJ12 other isoform, or with tags, fused parts or gaps S760A | S760A | S760A S760A) above, with F710A, A723S counted along it

Rluc-ADGRG2-ΔGPS-β L665A = target: T7, Rluc-ADGRG2-ΔGPS-β L665A (mouse, UniProt Q8CJ12-3 38-995, L665A)
T7 construct: ADGRG2 (GPR64), mouse, ADGRG2-ΔGPS-β: the entire ECD removed; source: HEK293, transfected, on cells; not shown: Rluc, N-terminal, kept
T7 sequence (Q8CJ12 other isoform, or with tags, fused parts or gaps L665A | L665A | L665A L665A): as the sequence (Q8CJ12 other isoform, or with tags, fused parts or gaps S760A | S760A | S760A S760A) above, with L628A, A723S counted along it

Rluc-ADGRG2-ΔGPS-β V731A = target: T8, Rluc-ADGRG2-ΔGPS-β V731A (mouse, UniProt Q8CJ12-3 38-995, V731A)
T8 construct: ADGRG2 (GPR64), mouse, ADGRG2-ΔGPS-β: the entire ECD removed; source: HEK293, transfected, on cells; not shown: Rluc, N-terminal, kept
T8 sequence (Q8CJ12 other isoform, or with tags, fused parts or gaps V731A | V731A | V731A V731A): as the sequence (Q8CJ12 other isoform, or with tags, fused parts or gaps S760A | S760A | S760A S760A) above, with V694A, A723S counted along it

Rluc-ADGRG2-ΔGPS-β L683A = target: T9, Rluc-ADGRG2-ΔGPS-β L683A (mouse, UniProt Q8CJ12-3 38-995, L683A)
T9 construct: ADGRG2 (GPR64), mouse, ADGRG2-ΔGPS-β: the entire ECD removed; source: HEK293, transfected, on cells; not shown: Rluc, N-terminal, kept
T9 sequence (Q8CJ12 other isoform, or with tags, fused parts or gaps L683A | L683A | L683A L683A): as the sequence (Q8CJ12 other isoform, or with tags, fused parts or gaps S760A | S760A | S760A S760A) above, with L646A, A723S counted along it

Rluc-ADGRG2-ΔGPS-β V768A = target: T10, Rluc-ADGRG2-ΔGPS-β V768A (mouse, UniProt Q8CJ12-3 38-995, V768A)
T10 construct: ADGRG2 (GPR64), mouse, ADGRG2-ΔGPS-β: the entire ECD removed; source: HEK293, transfected, on cells; not shown: Rluc, N-terminal, kept
T10 sequence (Q8CJ12 other isoform, or with tags, fused parts or gaps V768A | V768A | V768A V768A): as the sequence (Q8CJ12 other isoform, or with tags, fused parts or gaps S760A | S760A | S760A S760A) above, with A723S, V731A counted along it

Rluc-ADGRG2-ΔGPS-β I663A = target: T11, Rluc-ADGRG2-ΔGPS-β I663A (mouse, UniProt Q8CJ12-3 38-995, I663A)
T11 construct: ADGRG2 (GPR64), mouse, ADGRG2-ΔGPS-β: the entire ECD removed; source: HEK293, transfected, on cells; not shown: Rluc, N-terminal, kept
T11 sequence (Q8CJ12 other isoform, or with tags, fused parts or gaps I663A | I663A | I663A I663A): as the sequence (Q8CJ12 other isoform, or with tags, fused parts or gaps S760A | S760A | S760A S760A) above, with I626A, A723S counted along it

Rluc-ADGRG2-ΔGPS-β F826A = target: T12, Rluc-ADGRG2-ΔGPS-β F826A (mouse, UniProt Q8CJ12-3 38-995, F826A)
T12 construct: ADGRG2 (GPR64), mouse, ADGRG2-ΔGPS-β: the entire ECD removed; source: HEK293, transfected, on cells; not shown: Rluc, N-terminal, kept
T12 sequence (Q8CJ12 other isoform, or with tags, fused parts or gaps F826A | F826A | F826A F826A): as the sequence (Q8CJ12 other isoform, or with tags, fused parts or gaps S760A | S760A | S760A S760A) above, with A723S, F789A counted along it

Rluc-ADGRG2-ΔGPS-β M839A = target: T13, Rluc-ADGRG2-ΔGPS-β M839A (mouse, UniProt Q8CJ12-3 38-995, M839A)
T13 construct: ADGRG2 (GPR64), mouse, ADGRG2-ΔGPS-β: the entire ECD removed; source: HEK293, transfected, on cells; not shown: Rluc, N-terminal, kept
T13 sequence (Q8CJ12 other isoform, or with tags, fused parts or gaps M839A | M839A | M839A M839A): as the sequence (Q8CJ12 other isoform, or with tags, fused parts or gaps S760A | S760A | S760A S760A) above, with A723S, M802A counted along it

Rluc-ADGRG2-ΔGPS-β Y666A = target: T14, Rluc-ADGRG2-ΔGPS-β Y666A (mouse, UniProt Q8CJ12-3 38-995, Y666A)
T14 construct: ADGRG2 (GPR64), mouse, ADGRG2-ΔGPS-β: the entire ECD removed; source: HEK293, transfected, on cells; not shown: Rluc, N-terminal, kept
T14 sequence (Q8CJ12 other isoform, or with tags, fused parts or gaps Y666A | Y666A | Y666A Y666A): as the sequence (Q8CJ12 other isoform, or with tags, fused parts or gaps S760A | S760A | S760A S760A) above, with Y629A, A723S counted along it

Rluc-ADGRG2-ΔGPS-β F829A = target: T15, Rluc-ADGRG2-ΔGPS-β F829A (mouse, UniProt Q8CJ12-3 38-995, F829A)
T15 construct: ADGRG2 (GPR64), mouse, ADGRG2-ΔGPS-β: the entire ECD removed; source: HEK293, transfected, on cells; not shown: Rluc, N-terminal, kept
T15 sequence (Q8CJ12 other isoform, or with tags, fused parts or gaps F829A | F829A | F829A F829A): as the sequence (Q8CJ12 other isoform, or with tags, fused parts or gaps S760A | S760A | S760A S760A) above, with A723S, F792A counted along it

Rluc-ADGRG2-ΔGPS-β I844A = target: T16, Rluc-ADGRG2-ΔGPS-β I844A (mouse, UniProt Q8CJ12-3 38-995, I844A)
T16 construct: ADGRG2 (GPR64), mouse, ADGRG2-ΔGPS-β: the entire ECD removed; source: HEK293, transfected, on cells; not shown: Rluc, N-terminal, kept
T16 sequence (Q8CJ12 other isoform, or with tags, fused parts or gaps I844A | I844A | I844A I844A): as the sequence (Q8CJ12 other isoform, or with tags, fused parts or gaps S760A | S760A | S760A S760A) above, with A723S, I807A counted along it

## VS[Phe(4-Me)]GILLDLSRTSLP-{FITC′} [FITC-conjugated VPM-p15 (ADGRG2 Stachel peptide p15 T1V/F3Phe(4-Me))]
Rluc-ADGRG2-ΔGPS-β S760A
  EC50: 1350 nM
Rluc-ADGRG2-ΔGPS-β F764A
  EC50: 1110 nM
Rluc-ADGRG2-ΔGPS-β F772A
  EC50: 842 nM
Rluc-ADGRG2-ΔGPS-β Y611A
  EC50: 712 nM
Rluc-ADGRG2-ΔGPS-β F845A
  EC50: 1360 nM
Rluc-ADGRG2-ΔGPS-β F747A
  EC50: 759 nM
Rluc-ADGRG2-ΔGPS-β L665A
  EC50: 796 nM
Rluc-ADGRG2-ΔGPS-β V731A
  EC50: 838 nM
Rluc-ADGRG2-ΔGPS-β L683A
  EC50: 1160 nM
Rluc-ADGRG2-ΔGPS-β V768A
  EC50: 1040 nM
Rluc-ADGRG2-ΔGPS-β I663A
  EC50: 772 nM
Rluc-ADGRG2-ΔGPS-β F826A
  EC50: 1170 nM
Rluc-ADGRG2-ΔGPS-β M839A
  EC50: 896 nM
Rluc-ADGRG2-ΔGPS-β Y666A
  EC50: 838 nM
Rluc-ADGRG2-ΔGPS-β F829A
  EC50: 323 nM
Rluc-ADGRG2-ΔGPS-β I844A
  EC50: 1540 nM

— PMC7948503, “Optimization of a peptide ligand for the adhesion GPCR ADGRG2 provides a potent tool to explore receptor biology” (The Journal of Biological Chemistry, 2020)
